The target in this test is LS174T cells. In words: cell-binding assay, cell-bound Hoc detected by Western blot. Conditions: After 1.5 h of incubation; parent: est. 1.0; read off a plot.
For “Hoc protein of phage ΦPNJ-9 (wild type, recombinant) L184”, the other: Ratio of Hoc/MUC2 amounted to 0.5.

Regarding “Hoc protein of phage ΦPNJ-9 (wild type, recombinant) S183”, the other: Ratio of Hoc/MUC2 was found to be 0.53.

With “Hoc protein of phage ΦPNJ-9 (wild type, recombinant) T185”, the other: Ratio of Hoc/MUC2 worked out at 0.47.

These data come from PMC11853027.
